Here are results for 30 proteins from US20210238260.

One may read the KM as the concentration of substrate that gives half-maximal velocity.

Numbering of substitutions follows the chain as printed. Names may count otherwise.

B1: FIXa-R318Y/R338E/N346Y/R403E/E410N (protein)
chain 1: YNSGKLEEFVQGNLERECMEEKCSFEEAREVFENTERTTEFWKQYVDGDQCESNPCLNGGSCKDDINSYECWCPFGFEGKNCELDVTCNIKNGRCEQFCKNSADNKVVCSCTEGYRLAENQKSCEPAVPFPCGRVSVSQTSKLTR
chain 2: VVGGEDAKPGQFPWQVVLNGKVDAFCGGSIVNEKWIVTAAHCVETGVKITVVAGEHNIEETEHTEQKRNVIRIIPHHNYNAAINKYNHDIALLELDEPLVLNSYVTPICIADKEYTNIFLKFGSGYVSGWGRVFHKGYSALVLQYLRVPLVDRATCLESTKFTIYYNMFCAGFHEGGRDSCQGDSGGPHVTEVEGTSFLTGIISWGEECAMKGKYGIYTKVSEYVNWIKNKTKLT
B2: FIXa R338E/R403E/E410N (protein)
chain 1: B1 chain 1
chain 2: B1 chain 2 with Y138R, Y166N
B3: FIXa Y155F/R318Y/R403E/E410N (protein)
chain 1: B1 chain 1
chain 2: B1 chain 2 with E158R, Y166N
B4: FIXa K228N/R338E/R403E (protein)
chain 1: B1 chain 1
chain 2: B1 chain 2 with K48N, Y138R, Y166N, N230E
B5: FIXa D203N/F205T/K228N (protein)
chain 1: B1 chain 1
chain 2: B1 chain 2 with D23N, F25T, K48N, Y138R, E158R, Y166N, E223R, N230E
B6: FIXa D203N/F205T/R318Y (protein)
chain 1: B1 chain 1
chain 2: B1 chain 2 with D23N, F25T, E158R, Y166N, E223R, N230E
B7: FIXa Y155F/R318Y/R338E/R403E (protein)
chain 1: B1 chain 1
chain 2: B1 chain 2 with Y166N, N230E
B8: FIXa Y155F/I251S/R318Y/R338E/R403E/E410N (protein)
chain 1: B1 chain 1
chain 2: B1 chain 2 with I71S, Y166N
B9: FIXa D104N/K106S/R318Y/R338E/E410N (protein)
chain 1: B1 chain 1 with D104N, K106S
chain 2: B1 chain 2 with Y166N, E223R
B10: FIXa Y155F/R338E/R403E/E410N (protein)
chain 1: B1 chain 1
chain 2: B1 chain 2 with Y138R, E158R, Y166N, R178E
B11: FIXa R318Y/R338E/R403E (protein)
chain 1: B1 chain 1
chain 2: B1 chain 2 with Y166N, N230E
B12: FIXa-R318Y/R338E/Y345A/R403E/E410N (protein)
chain 1: B1 chain 1
chain 2: B1 chain 2 with Y165A, Y166N
B13: FIXa-R318Y/R338E/T343R/N346Y/R403E/E410N (protein)
chain 1: B1 chain 1
chain 2: B1 chain 2 with T163R
B14: FIXa D203N/F205T/R338A (protein)
chain 1: B1 chain 1
chain 2: B1 chain 2 with D23N, F25T, Y138R, E158A, Y166N, E223R, N230E
B15: FIXa R318Y/R338E/E410N (protein)
chain 1: B1 chain 1
chain 2: B1 chain 2 with Y166N, E223R
B16: FIXa Y259F/K265T/Y345T (protein)
chain 1: B1 chain 1
chain 2: B1 chain 2 with Y79F, K85T, Y138R, E158R, Y165T, Y166N, E223R, N230E
B17: FIXa Y155F/K228N/R318Y/R338E/R403E/E410N (protein)
chain 1: B1 chain 1
chain 2: B1 chain 2 with K48N, Y166N
B18: FIXa D203N/F205T/R338E/R403E (protein)
chain 1: B1 chain 1
chain 2: B1 chain 2 with D23N, F25T, Y138R, Y166N, N230E
B19: FIXa D203N/F205T/R338E (protein)
chain 1: B1 chain 1
chain 2: B1 chain 2 with D23N, F25T, Y138R, Y166N, E223R, N230E
B20: FIXa-R318Y/R338E/T343R/N346D/R403E/E410N (protein)
chain 1: B1 chain 1
chain 2: B1 chain 2 with T163R, Y166D
B21: FIXa K228N/R318Y/E410N (protein)
chain 1: B1 chain 1
chain 2: B1 chain 2 with K48N, E158R, Y166N, E223R
B22: FIXa R318Y/R338E/R403E/E410N (protein)
chain 1: B1 chain 1
chain 2: B1 chain 2 with Y166N
B23: FIXa K228N/R318Y/R338E/R403E/E410N (protein)
chain 1: B1 chain 1
chain 2: B1 chain 2 with K48N, Y166N
B24: FIXa I251S/R318Y/R338E/E410N (protein)
chain 1: B1 chain 1
chain 2: B1 chain 2 with I71S, Y166N, E223R
B25: FIXa I251S/R318Y/R338E/R403E/E410N (protein)
chain 1: B1 chain 1
chain 2: B1 chain 2 with I71S, Y166N
B26: FIXa D203N/F205T/E410N (protein)
chain 1: B1 chain 1
chain 2: B1 chain 2 with D23N, F25T, Y138R, E158R, Y166N, E223R
B27: FIXa Y155F/R318Y/R338E/E410N (protein)
chain 1: B1 chain 1
chain 2: B1 chain 2 with Y166N, E223R
B28: FIXa R318Y/R403E/E410N (protein)
chain 1: B1 chain 1
chain 2: B1 chain 2 with E158R, Y166N
B29: FIXa D85N/K228N/R318Y/R338E/R403E/E410N (protein)
chain 1: B1 chain 1 with D85N
chain 2: B1 chain 2 with K48N, Y166N
B30: FIXa-R318Y/R338E/Y345A/N346D/R403E/E410N (protein)
chain 1: B1 chain 1
chain 2: B1 chain 2 with Y165A, Y166D

The target of this data set is Factor X (FX), P00742.
Sequence of Factor X (FX), P00742 (P00742 whole entry, looked up): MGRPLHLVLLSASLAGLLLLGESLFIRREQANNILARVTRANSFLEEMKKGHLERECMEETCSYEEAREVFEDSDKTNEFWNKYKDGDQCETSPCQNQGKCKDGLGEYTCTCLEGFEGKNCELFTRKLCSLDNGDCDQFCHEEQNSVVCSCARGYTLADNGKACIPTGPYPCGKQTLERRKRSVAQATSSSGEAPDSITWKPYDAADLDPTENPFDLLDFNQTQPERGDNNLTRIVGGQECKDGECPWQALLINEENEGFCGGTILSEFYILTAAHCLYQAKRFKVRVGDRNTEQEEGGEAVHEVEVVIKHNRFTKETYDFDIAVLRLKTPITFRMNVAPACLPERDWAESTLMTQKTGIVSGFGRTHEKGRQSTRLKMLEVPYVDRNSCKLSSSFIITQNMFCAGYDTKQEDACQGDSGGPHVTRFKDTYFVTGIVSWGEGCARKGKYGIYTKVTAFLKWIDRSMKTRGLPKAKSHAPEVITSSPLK
As to B1, the kcat of FX activation by FIXa (Xase complex with FVIIIa, PC/PS vesicles, Ca2+) worked out at 3.4 s⁻¹.

As to B2, the KM was 0.0367 µM.

As for B3, the KM was 0.111 µM.

Turning to B4, the KM was 0.0592 µM.

As to B5, the KM is 0.0399 µM.

Regarding B6, the KM was found to be 0.0475 µM.

On to B7, for which the KM amounted to 0.0671 µM.

For B8, the KM (FX activation by FIXa in the Xase complex with FVIIIa, PC/PS vesicles and Ca2+) turned out to be 0.0433 µM.

On to B9, for which the KM is 0.0189 µM.

B10: the KM was 0.0336 µM.

For the protein B11, the KM came to 0.0597 µM.

With B12, the kcat of FX activation by FIXa (Xase complex with FVIIIa, PC/PS vesicles, Ca2+) stood at 1.4 s⁻¹.

B13: the kcat of FX activation by FIXa (Xase complex with FVIIIa, PC/PS vesicles, Ca2+) came out at 4.6 s⁻¹.

For the protein B14, the KM was 0.0385 µM.

As for B15, the KM came out at 0.0139 µM.

Consider B16, for which the KM (FX activation by FIXa in the Xase complex with FVIIIa, PC/PS vesicles and Ca2+) is 0.0309 µM.

Take B17: the KM (FX activation by FIXa in the Xase complex with FVIIIa, PC/PS vesicles and Ca2+) is 0.0408 µM.

For B18, the KM is 0.0511 µM.

For the protein B19, the KM stood at 0.0241 µM.

Consider B20, for which the kcat of FX activation by FIXa (Xase complex with FVIIIa, PC/PS vesicles, Ca2+) came out at 5.4 s⁻¹.

For B21, the KM turned out to be 0.042 µM.

For B22, the KM came out at 0.0432 µM.

For B23, the KM (FX activation by FIXa in the Xase complex with FVIIIa, PC/PS vesicles and Ca2+) is 0.0361 µM.

For the protein B24, the KM (FX activation by FIXa in the Xase complex with FVIIIa, PC/PS vesicles and Ca2+) turned out to be 0.0161 µM.

As to B25, the KM (FX activation by FIXa in the Xase complex with FVIIIa, PC/PS vesicles and Ca2+) is 0.0334 µM.

Take B26: the KM was determined as 0.0455 µM.

On to B27, for which the KM stood at 0.016 µM.

For the protein B28, the KM amounted to 0.0942 µM.

With B29, the KM (FX activation by FIXa in the Xase complex with FVIIIa, PC/PS vesicles and Ca2+) was 0.0393 µM.

Turning to B30, the kcat of FX activation by FIXa (Xase complex with FVIIIa, PC/PS vesicles, Ca2+) was found to be 1.2 s⁻¹.
